Assay results reported in publication PMC3742808.
Read-outs that look alike come from different tables or passages of the source.

Assays:
[1] = biological target: recombinant human APC/C (without CDH1) (human) (UniProt Q9H1A4); experiment: enzyme inhibition
[2] = biological target: recombinant human APC/C (without CDH1) (human) (UniProt Q9H1A4); experiment: enzyme inhibition; remark: listed apart in the source

EMI1^T (synthetic peptide corresponding to the EMI1 C-terminal tail)
Ki [1]: 48 µM
Ki [2]: 13 µM
